Measurements reported in publication PMC4816226.

Target: biotinylated bovine serum albumin (bovine) (UniProt P02769)
Assay: broad-band Mach-Zehnder interferometry (label-free, TE and TM phase shifts); multiplexed chip: mouse IgG (WGs 1, 4, 7, 10), biotinylated-BSA (WGs 2, 5, 8) and BSA blanks spotted on the sensing arms, blocked with BSA; 1 nM streptavidin in assay buffer (50 mM phosphate, pH 7.4, 10 g/L BSA) for 20 min, then 10 nM anti-mouse IgG antibody for 20 min; 20 ul/min

UniProt P02769, sequence (P02769 25-607): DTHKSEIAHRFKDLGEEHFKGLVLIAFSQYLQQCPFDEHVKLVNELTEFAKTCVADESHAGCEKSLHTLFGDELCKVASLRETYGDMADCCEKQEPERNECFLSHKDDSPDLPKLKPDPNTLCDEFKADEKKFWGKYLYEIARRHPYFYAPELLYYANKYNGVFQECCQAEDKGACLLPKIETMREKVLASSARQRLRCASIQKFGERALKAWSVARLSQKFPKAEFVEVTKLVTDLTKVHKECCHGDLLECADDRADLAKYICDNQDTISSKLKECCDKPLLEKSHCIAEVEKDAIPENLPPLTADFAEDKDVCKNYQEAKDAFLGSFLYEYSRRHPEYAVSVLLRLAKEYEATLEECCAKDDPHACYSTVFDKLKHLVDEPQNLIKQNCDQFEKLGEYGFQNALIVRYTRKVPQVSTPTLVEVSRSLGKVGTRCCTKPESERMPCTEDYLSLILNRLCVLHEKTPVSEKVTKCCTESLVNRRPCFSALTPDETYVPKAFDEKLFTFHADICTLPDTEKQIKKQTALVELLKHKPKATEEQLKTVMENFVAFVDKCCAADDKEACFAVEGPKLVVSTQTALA

TE phase shift after 20 min with 1 nM streptavidin (interferometer 2): 4.48 radians
TE phase shift after 20 min with 1 nM streptavidin (interferometer 5): 4.56 radians
TE phase shift after 20 min with 1 nM streptavidin (interferometer 8): 4.25 radians
TM phase shift after 20 min with 1 nM streptavidin (interferometer 2): 6.02 radians
TM phase shift after 20 min with 1 nM streptavidin (interferometer 5): 6.87 radians
TM phase shift after 20 min with 1 nM streptavidin (interferometer 8): 5.73 radians
Substance: Immunopure Streptavidin (from UniProt P22629 25-183) (natural protein)
